Patent US20260049134A1 (UNIVERSITY OF FLORIDA RESEARCH FOUNDATION, published 2026)

Experiments:
ICAM1-Fc (R&D Systems) [1] = biological target: T1, ICAM1-Fc (R&D Systems) (human, UniProt P05362 28-480); experiment: ELISA on coated ICAM1-Fc
T1 construct: Bought; also called ICAM-1/CD54; not shown: Fc of the bought fusion protein
Procedure: (§1) Recombinant purified ECDs (50-150 ng) of each putative target protein were coated, incubated with 150 ng of the indicated primary antibody, and binding was detected using a peroxidase-conjugated anti-human Fab secondary antibody. Heatmap represents averages of technical triplicates. (8B) Target validation via siRNA knockdown. H929 cells were transfected with siRNA pools targeting the putative antibody targets ICAM1, CADM1, and PTPRG. Cells were then subjected to cognate IgG binding analysis via flow cytometry. (NT, non-targeting siRNA).
(§2) ELISA ELISA was conducted as described previously. Briefly, 50-150 ng of antigen was coated overnight in half-area 96-well plates at 4° C., blocked with 3% BSA at 37° C. for 1 h, and 150 ng of chimeric rabbit/human IgG1 was added, incubating for 2 h at 37° C. […] After incubating at 37° C. for 15 min-1 h (depending on intensity of controls), data were acquired using a SpectraMax M5 plate reader (Molecular Devices).

IGSF11 (VSIG3) [2] = biological target: T2, IGSF11 (VSIG3); experiment: ELISA on coated IGSF11-Fc, 150 ng IgG1; None 0.090
T2 construct: coated protein in the ELISA; also called IGSF11-Fc (R&D Systems)
T2 chain: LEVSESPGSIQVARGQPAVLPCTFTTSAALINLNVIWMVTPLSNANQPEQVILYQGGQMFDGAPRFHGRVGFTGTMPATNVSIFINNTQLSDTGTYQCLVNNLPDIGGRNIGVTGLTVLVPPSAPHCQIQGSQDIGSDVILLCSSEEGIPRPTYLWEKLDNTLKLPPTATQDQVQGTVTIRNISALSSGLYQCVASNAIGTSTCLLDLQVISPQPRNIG
Procedure: as §1, §2

IGSF11 (VSIG3) [3] = biological target: T2, IGSF11 (VSIG3); experiment: ELISA on coated IGSF11-Fc
Procedure: as §1, §2

ICAM1-Fc (R&D Systems) [4] = biological target: T1, ICAM1-Fc (R&D Systems); experiment: ELISA on coated ICAM1-Fc, 150 ng IgG1; None 0.060
Procedure: as §1, §2

[5] = biological target: T3, GARS, endogenous in H929 multiple myeloma cells (human, UniProt P41250 37-739, limits assumed); experiment: flow cytometry, H929 + PTPRG siRNA; None 2.13; surface target GARS putative
T3 construct: Native protein pulled down from H929 lysates; also called Glycyl-tRNA synthetase; GlyRS
T3 sequence: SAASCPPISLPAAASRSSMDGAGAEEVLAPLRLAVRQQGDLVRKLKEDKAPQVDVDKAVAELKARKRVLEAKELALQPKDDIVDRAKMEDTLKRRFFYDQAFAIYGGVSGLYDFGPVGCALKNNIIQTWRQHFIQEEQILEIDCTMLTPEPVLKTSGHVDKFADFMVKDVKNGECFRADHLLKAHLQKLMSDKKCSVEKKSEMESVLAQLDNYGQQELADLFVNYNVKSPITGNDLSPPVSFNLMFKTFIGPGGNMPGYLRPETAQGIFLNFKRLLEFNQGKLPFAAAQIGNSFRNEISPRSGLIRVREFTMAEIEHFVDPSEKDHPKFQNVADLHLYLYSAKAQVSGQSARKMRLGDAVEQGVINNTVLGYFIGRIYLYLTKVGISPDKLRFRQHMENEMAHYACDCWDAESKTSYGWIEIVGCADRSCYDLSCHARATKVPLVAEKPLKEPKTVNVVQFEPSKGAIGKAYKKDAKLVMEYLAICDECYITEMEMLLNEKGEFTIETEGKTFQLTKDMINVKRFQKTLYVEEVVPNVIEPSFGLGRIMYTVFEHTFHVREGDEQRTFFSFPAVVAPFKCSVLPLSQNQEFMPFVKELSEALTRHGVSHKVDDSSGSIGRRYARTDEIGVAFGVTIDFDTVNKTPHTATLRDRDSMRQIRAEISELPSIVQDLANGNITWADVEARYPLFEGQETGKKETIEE

PTP4A3 (PRL-3) = biological target: T4, PTP4A3 (PRL-3); experiment: ELISA on coated His-PTP4A3
T4 construct: coated protein in the ELISA; also called His-PTP4A3 (R&D Systems)
T4 sequence (chain, as listed by the source limits assumed): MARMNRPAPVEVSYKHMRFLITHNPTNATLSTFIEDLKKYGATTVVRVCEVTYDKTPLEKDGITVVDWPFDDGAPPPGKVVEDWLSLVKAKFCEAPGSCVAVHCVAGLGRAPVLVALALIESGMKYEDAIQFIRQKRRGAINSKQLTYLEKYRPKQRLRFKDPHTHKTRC
Procedure: as §1, §2

SELL (L-Selectin) = biological target: T5, SELL (L-Selectin); experiment: ELISA on coated SELL-Fc-His, 150 ng IgG1; None 0.096
T5 construct: coated protein in the ELISA; also called SELL-Fc-His (R&D Systems)
T5 chain: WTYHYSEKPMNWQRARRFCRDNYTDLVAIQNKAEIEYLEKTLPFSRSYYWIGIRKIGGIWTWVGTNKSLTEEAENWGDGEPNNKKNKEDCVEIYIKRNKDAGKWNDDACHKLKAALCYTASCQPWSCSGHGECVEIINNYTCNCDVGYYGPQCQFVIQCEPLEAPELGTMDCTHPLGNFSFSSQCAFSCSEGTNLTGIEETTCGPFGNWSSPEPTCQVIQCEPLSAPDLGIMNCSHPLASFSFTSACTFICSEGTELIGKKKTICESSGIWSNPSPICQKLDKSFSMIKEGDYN
Procedure: as §1, §2

[6] = biological target: T3, GARS, endogenous in H929 multiple …; experiment: flow cytometry, H929 + NT Green siRNA; None 416; surface target GARS putative
APP = biological target: T6, APP; experiment: ELISA on coated APP-His, 150 ng IgG1; None 0.092
T6 construct: His-tagged; coated protein in the ELISA; also called APP-His (Acro Biosystems)
Procedure: as §1, §2

ANXA1 = biological target: T7, ANXA1; experiment: ELISA on coated ANXA1-His, 150 ng IgG1; None 0.098
T7 construct: coated protein in the ELISA; also called ANXA1-His (R&D Systems)
T7 chain: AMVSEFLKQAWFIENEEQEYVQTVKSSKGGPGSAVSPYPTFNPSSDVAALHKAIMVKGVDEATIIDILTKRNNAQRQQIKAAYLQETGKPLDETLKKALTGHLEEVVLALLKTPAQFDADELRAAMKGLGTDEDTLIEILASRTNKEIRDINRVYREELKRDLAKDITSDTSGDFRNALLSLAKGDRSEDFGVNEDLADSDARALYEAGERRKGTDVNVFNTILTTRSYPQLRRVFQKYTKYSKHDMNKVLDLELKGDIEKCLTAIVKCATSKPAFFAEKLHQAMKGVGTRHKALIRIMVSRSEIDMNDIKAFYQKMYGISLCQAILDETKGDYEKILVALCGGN
Procedure: as §1, §2

T1 sequence (P05362 28-480): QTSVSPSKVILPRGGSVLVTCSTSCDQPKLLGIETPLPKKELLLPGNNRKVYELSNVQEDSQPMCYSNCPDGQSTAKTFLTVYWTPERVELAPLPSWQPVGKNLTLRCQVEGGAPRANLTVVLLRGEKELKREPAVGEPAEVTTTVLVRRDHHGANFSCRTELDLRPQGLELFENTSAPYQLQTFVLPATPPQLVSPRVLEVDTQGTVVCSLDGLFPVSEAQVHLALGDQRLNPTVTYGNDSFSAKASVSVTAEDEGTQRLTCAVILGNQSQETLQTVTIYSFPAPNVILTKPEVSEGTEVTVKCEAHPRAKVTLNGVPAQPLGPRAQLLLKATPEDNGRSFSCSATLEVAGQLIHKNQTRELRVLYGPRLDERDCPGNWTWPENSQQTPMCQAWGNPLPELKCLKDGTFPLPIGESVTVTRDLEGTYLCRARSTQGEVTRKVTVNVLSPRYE

B1: HW-16 chimeric rabbit-human IgG1 LA/LA/PG (antibody, V domains shown)
VH: QSLEESGGRLVTPGTPLTLTCTASGFSLSSYAMSWVRQAPGKGLEWIGTMPTGGGTYYASWAKGRFTISKTSTTVDLQITSPTTEDTATYFCAKHWNIWGPGTLVTISS
VL: DIVLTQTPSSTSTAVGDTVTINCRASQSIGRNLAWFQQKPGQPPKLLIYRASNLASGVPSRFKGSGSRTQFTLTISGVQREDAATYYCLGSYSSSDTAFGGGTELEILR
notes: Fc-silenced (L234A/L235A/P329G) IgG1, kappa; Alexa Fluor 647-labeled in single-step flow cytometry; Cluster C-45
For B1, the binding result (ICAM1-Fc (R&D Systems) [1]) was “no binding (tested: 150 ng IgG1 per well)”, the “ELISA Absorbance (405 nm-570 nm)” value (IGSF11 (VSIG3) [2]) was 0.087 and the binding result (IGSF11 (VSIG3) [3]) was “no binding (tested: 150 ng IgG1 per well)”. The “ELISA Absorbance (405 nm-570 nm)” value (ICAM1-Fc (R&D Systems) [4]) was 0.055, the “Cells stained (%)” value [5] was 98.2% and the binding result (PTP4A3 (PRL-3)) was “no binding (tested: 150 ng IgG1 per well)”. For the same binder, the “ELISA Absorbance (405 nm-570 nm)” value (SELL (L-Selectin)) was 0.177, the “mAb binding (MFI)” value [6] was 59500 and the “ELISA Absorbance (405 nm-570 nm)” value (APP) was 0.225. For the same binder, the “ELISA Absorbance (405 nm-570 nm)” value (ANXA1) was 0.111.
